From patent US9809653B2, “Anti-LAMP1 antibodies and antibody drug conjugates, and uses thereof” (SANOFI, priority 2012, dated 2017)
Substitutions are numbered along the chain they refer to. Blank lines part the entries; values can stand above or below the molecule they belong to.

Experiments:
[1] = biological target: T1, cell surface LAMP1 on Patient-derived tumor xenografts and tumor cell lines (Homo sapiens, UniProt P11279); assay: Antibody binding capacity (ABC) by FACS on patient-derived xenografts and tumor cell lines
T1 construct: endogenous in cells; host or cells: enzymatically dissociated patient-derived xenograft tumour cells (e.g. CR-IGR-034P, LUN-NIC-014P, BRE-IGR-0159) and tumour cell lines
T1 sequence (P11279 29-417): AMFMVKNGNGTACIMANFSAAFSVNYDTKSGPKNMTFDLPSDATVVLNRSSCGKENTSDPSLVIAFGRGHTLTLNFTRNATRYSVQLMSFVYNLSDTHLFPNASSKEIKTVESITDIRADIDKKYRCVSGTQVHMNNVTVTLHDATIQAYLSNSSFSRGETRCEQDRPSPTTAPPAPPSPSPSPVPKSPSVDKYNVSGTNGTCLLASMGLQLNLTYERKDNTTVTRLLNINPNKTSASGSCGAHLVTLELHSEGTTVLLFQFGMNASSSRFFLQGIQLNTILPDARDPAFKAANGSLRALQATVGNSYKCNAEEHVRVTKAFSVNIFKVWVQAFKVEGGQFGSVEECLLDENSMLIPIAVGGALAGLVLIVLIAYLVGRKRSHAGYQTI
Experimental: Antibody binding capacity of antibody was determined using Mouse IgG Calibrator kit (Biocytex #7208) or Human IgG Calibrator Kit (Biocytex #CP010) according to the manufacturer's instructions.
The panel of tumor cells comprises Patient-derived tumor xenografts from different origins and tumor cell lines. FIG. 2 illustrates the expression profile and Table 4 summarizes the antibody binding capacity results.
The panel of tumor cells comprises Patient-derived tumor xenografts from different origins and tumor cell lines.

hLAMP1_ΔGYQTI = biological target: T2, hLAMP1_ΔGYQTI (Homo sapiens, UniProt P11279); assay: Binding onto membrane-anchored human LAMP1 (293-F cells) by flow cytometry; settings: pXL5626 hLAMP1_ΔGYQTI
T2 construct: expressed in transfected cells; host or cells: 293-F (HEK293-derived), transient transfection, plasmid pXL5626
T2 sequence (P11279 with tags, fused parts or gaps limits assumed): T1 sequence (P11279 29-417) with G385A, Y386A, Q387A, T388A, I389A
Experimental: Different LAMP1 proteins were expressed at the cell membrane of HEK293 cells after transient expression from mammalian plasmids encoding the entire coding sequence of LAMP1 deleted of the intracellular lysosome-targeting motif GYQTI and substituted by a 5-Ala repeat sequence.
Two days post transfection cells were processed, analyzed by flow cytometry (Guava® easyCyte™ 8HT) as mentioned in example 4.7, and the mean fluorescence was recorded. This fluorescence represents a semi-quantitative assessment of binding.

[2] = biological target: T3, LAMP1 in FFPE colon adenocarcinoma PDX CR-LRB-010P and human breast carcinoma (Homo sapiens, UniProt P11279); assay: IHC on FFPE tumor tissue, LAMP1 membrane reinforcement; settings: FFPE samples
T3 construct: from tissue; host or cells: human tumoral and non-tumoral tissue sections and PDX tumour sections (frozen-OCT, AFA, FFPE)
T3 sequence (P11279 29-417): T1 sequence (P11279 29-417)
From the text: IHC analysis of tumor tissues from biobanks or from hospitals before or during patient treatment is routinely done with formalin-fixed paraffin-embedded (FFPE) samples. […] One of the reasons is probably the effect of the formalin fixative combined to the complexity of the protein. Samples processed in frozen OCT or AFA are not routinely prepared in hospitals. Therefore, there is a need to have a mAb that would allow complete and fast coverage of the FFPE tumor biobanks and hospital samples.
Rabbit polyclonal antibodies generated with peptides described in example 17.1.1 were tested by IHC on FFPE sample of colon adenocarcinoma patient derived xenograft CR-LRB-010P and human breast carcinoma. After antigen retrieval procedure and endogen biotins blocking steps, slides were incubated with the primary anti-antibody for 1 hour at 24° C. Negative controls were performed by omission of the primary antibody. The biotin free anti-rabbit UltraMap™ horseradish peroxidase (HRP) conjugate (760-4315, Ventana Medical Systems, Inc, USA) was used as secondary antibody system according to manufacturer's recommendations. A couterstaining step was done with hematoxylin (760-2037, Ventana Medical Systems, Inc, USA) and bluing reagent was applied (760-2037, Ventana Medical Systems, Inc, USA). Stained slides were dehydrated and coverslipped with cytoseal XYL (8312-4, Richard-Allan Scientific, USA).
As the same manner as in example 17.1.2, IHC screening was performed with the hybridoma supernatant to identify mouse monoclonal antibody showing LAMP1 membrane reinforcement on FFPE sample of colon adenocarcinoma patient derived xenograft CR-LRB-010P. The biotin free anti-mouse UltraMap™ horseradish peroxidase (HRP) conjugate (760-152, Ventana Medical Systems, Inc, USA) was used as secondary antibody system according to manufacturer's recommendations.

recombinant human LAMP2 = biological target: T4, recombinant human LAMP2 (Homo sapiens, UniProt P13473); assay: Specificity ELISA on recombinant human LAMP2; type: binding
T4 construct: purchased R&D Systems 6228-LM
T4 sequence (P13473 with tags, fused parts or gaps): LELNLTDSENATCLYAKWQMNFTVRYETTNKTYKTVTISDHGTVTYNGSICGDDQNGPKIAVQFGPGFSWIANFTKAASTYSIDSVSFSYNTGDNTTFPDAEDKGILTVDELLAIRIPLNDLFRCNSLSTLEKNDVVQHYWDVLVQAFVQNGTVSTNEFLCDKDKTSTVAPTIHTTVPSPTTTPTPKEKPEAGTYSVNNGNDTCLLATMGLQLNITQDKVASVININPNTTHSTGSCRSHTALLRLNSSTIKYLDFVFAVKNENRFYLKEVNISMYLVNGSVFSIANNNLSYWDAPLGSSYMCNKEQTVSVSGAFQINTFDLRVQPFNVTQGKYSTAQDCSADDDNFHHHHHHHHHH
Experimental: LAMP2 is the closest member of the LAMP family with 35% sequence identity to LAMP1. […] Anti-LAMP1 antibodies were added to the plates and detected by using rabbit anti-mouse IgG conjugated with horseradish peroxidase (Sigma; #A9044). Antibody binding was visualized by adding TMB-H2O2 buffer and read at a wavelength of 450 nm.
LAMP2 is the closest member of the LAMP family with 35% sequence identity to LAMP1. Specificity of MAb4 was evaluated by ELISA as described in example 4.6 with either LAMP1 or LAMP2 soluble proteins, as shown in FIG. 41.

- Antibody Binding Capacity (ABC) ([1]; CR-IGR-034P/colorectal PDX): 230,000
- Antibody Binding Capacity (ABC) ([1]; CR-LRB-003P/colorectal PDX): 25 000
- Antibody Binding Capacity (ABC) ([1]; CR-LRB-010P/colorectal PDX): 140,000
- Antibody Binding Capacity (ABC) ([1]; Colo205/colon cell line): 6,000
- Antibody Binding Capacity (ABC) ([1]; LS174T/colon cell line): 6,000
- Antibody Binding Capacity (ABC) ([1]; LUN-NIC-014/lung PDX): 104,000
- Antibody Binding Capacity (ABC) ([1]; LUN-NIC-025/lung PDX): 33,000
- Antibody Binding Capacity (ABC) ([1]; OVA-IGR-0022/ovary PDX): 67,000
- Antibody Binding Capacity (ABC) ([1]; STO-IND-006/stomach PDX): 90,000
- Antibody Binding Capacity (ABC) ([1]; SW480/colon cell line): 2,500
- Binding call (hLAMP1_ΔGYQTI; Table 17 Experiment no1): Binding
- Mean fluorescence (hLAMP1_ΔGYQTI; Table 17 Experiment no1): 1748
- Binding call (hLAMP1_ΔGYQTI; Table 17 Experiment no2): Full binding
- Mean fluorescence (hLAMP1_ΔGYQTI; Table 17 Experiment no2): 551
- Binding call (hLAMP1_ΔGYQTI; Table 18): Binding
- Mean fluorescence (hLAMP1_ΔGYQTI; Table 18): 914
- binding to LAMP2 (recombinant human LAMP2): No binding
B1: MAb1: murine monoclonal anti-LAMP1 antibody, VH SEQ ID NO: 1, VL SEQ ID NO: 5 (antibody, V domains shown)
VH: QVQLQQSGAELVKPGASVKMSCKASGYIFTNYNIHWVKKSPGQGLEWIGAIYPGNGDAPYSQKFKDKATLTADKSSSTTYMQLSRLTSEDSAVYYCVRANWDVAFAYWGQGTLVSVSA
VL: DIQMTQSPPSLSASLGGKVTITCKASQDIDRYMAWYQDKPGKGPRLLIHDTSTLQPGIPSRFSGSGSGRDYSFSISNLEPEDIATYYCLQYDNLWTFGGGTKLEIK
modifications: Antibody Fragment; antibody fragment
- LAMP1 membrane reinforcement in FFPE format by IHC [2]: can not lead to the detection of LAMP1 reinforcement in FFPE format

- Antibody Binding Capacity (ABC) ([1]; CR-IGR-034P/colorectal PDX): 180,000
- Antibody Binding Capacity (ABC) ([1]; CR-LRB-003P/colorectal PDX): 22 000
- Antibody Binding Capacity (ABC) ([1]; CR-LRB-010P/colorectal PDX): 95,000
- Antibody Binding Capacity (ABC) ([1]; Colo205/colon cell line): 4,000
- Antibody Binding Capacity (ABC) ([1]; LS174T/colon cell line): 3,600
- Antibody Binding Capacity (ABC) ([1]; LUN-NIC-014/lung PDX): 102,000
- Antibody Binding Capacity (ABC) ([1]; LUN-NIC-025/lung PDX): 27,000
- Antibody Binding Capacity (ABC) ([1]; OVA-IGR-0022/ovary PDX): 60,000
- Antibody Binding Capacity (ABC) ([1]; STO-IND-006/stomach PDX): 64,000
- Antibody Binding Capacity (ABC) ([1]; SW480/colon cell line): 1,700
- Binding call (hLAMP1_ΔGYQTI; Table 17 Experiment no1): binding
- Mean fluorescence (hLAMP1_ΔGYQTI; Table 17 Experiment no1): 1183
- Binding call (hLAMP1_ΔGYQTI; Table 18): Binding
- Mean fluorescence (hLAMP1_ΔGYQTI; Table 18): 757
- binding to LAMP2 (recombinant human LAMP2): No binding
B2: MAb2: murine monoclonal anti-LAMP1 antibody, VH SEQ ID NO: 8, VL SEQ ID NO: 12 (antibody, V domains shown)
VH: QVQLQQSAAELARPGASVKMSCKASGYTFTSYTMHWVKQRPGQGLEWIGYFNPSSGYPEYNQKFKDKTTLTADKSSNTAFIQLNSLTSEDSAVYYCSRGYYYGSRGYALDFWGQGASVTVSS
VL: NIVLTQSPVSLAVSLGQRATISCRASESVDINGNTFMHWYQQKPGQSPKLVIYAASNIESGVPARFSGSGSSTDFTFTIDPVEADDVATYYCQQNIEDPWTFGGGTKVEIK
modifications: antibod fragment; antibody fragment
- LAMP1 membrane reinforcement in FFPE format by IHC [2]: can not lead to the detection of LAMP1 reinforcement in FFPE format
